Test results: US20110059095A1
Where two headings read alike, the source gives them in different places. Values belong to the substance of their own block, whether it stands above or below them.

How the values were obtained:
[1] = target: full length human PAR-2 (human) (UniProt P55085); test: cell-based or functional assay
[2] = target: full length mouse PAR-2 (mouse) (UniProt P55086); test: cell-based or functional assay
monkey PAR-2 (monkey) = test: cell-based or functional assay
[3] = target: C-terminal biotinylated human PAR-2 14-mer peptide SEQ ID NO:884 (…, wild-type) (human); test: BLI Exp2
[4] = target: C-terminal biotinylated human PAR-2 14-mer peptide SEQ ID NO:885 (Val-42 to Ala) (human); test: BLI Exp2
[5] = target: C-terminal biotinylated human PAR-2 14-mer peptide SEQ ID NO:886 (Asp-43 to Ala) (human); test: BLI Exp2
[6] = target: C-terminal biotinylated human PAR-2 14-mer peptide SEQ ID NO:887 (Val-42 and Asp-43 to Ala) (human); test: BLI Exp2
[7] = target: Peptide B (human PAR-2), unbiotinylated (Human); test: SPR, antibody captured
[8] = target: T1, Peptide B (human PAR-2), C-terminal biotinylated (Human); test: SPR, peptide immobilized
T1 sequence (peptide, C-terminal biotin via G4S linker): SLIGKVDGTSHVTGGGGGS

[9] = target: T2, Peptide B (human PAR-2), N-terminal biotinylated (Human); test: SPR, peptide immobilized
T2 sequence (peptide, N-terminal biotin via G4S linker): GGGGSSLIGKVDGTSHVTG

[10] = target: T1, Peptide B (human PAR-2), C-terminal biotinylated (Human); test: SPR, peptide immobilized; remark: listed apart in the source
[11] = target: full length human PAR-2 (human) (UniProt P55085); test: cell ELISA, 10 ug/ml antibody

Chain of full length human PAR-2 (human) (P55085 26-397 G138A limits assumed): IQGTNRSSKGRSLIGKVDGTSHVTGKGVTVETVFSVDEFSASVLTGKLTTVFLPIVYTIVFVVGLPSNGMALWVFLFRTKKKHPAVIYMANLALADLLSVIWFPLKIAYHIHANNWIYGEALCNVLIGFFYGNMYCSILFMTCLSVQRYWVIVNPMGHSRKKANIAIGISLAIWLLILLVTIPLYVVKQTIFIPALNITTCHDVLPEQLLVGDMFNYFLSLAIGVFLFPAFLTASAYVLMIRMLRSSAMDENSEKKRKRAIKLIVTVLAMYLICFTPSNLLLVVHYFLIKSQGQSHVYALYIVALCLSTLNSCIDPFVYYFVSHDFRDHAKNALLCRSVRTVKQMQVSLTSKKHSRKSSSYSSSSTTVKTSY
Chain of C-terminal biotinylated human PAR-2 14-mer peptide SEQ ID NO:885 (Val-42 to Ala) (human) (peptide, as listed by the source): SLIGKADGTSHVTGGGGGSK
Chain of C-terminal biotinylated human PAR-2 14-mer peptide SEQ ID NO:887 (Val-42 and Asp-43 to Ala) (human) (peptide, as listed by the source): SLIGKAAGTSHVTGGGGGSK
Chain of C-terminal biotinylated human PAR-2 14-mer peptide SEQ ID NO:884 (…, wild-type) (human) (peptide, as listed by the source): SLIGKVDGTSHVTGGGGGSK
Chain of full length mouse PAR-2 (mouse) (P55086 other isoform, or with tags, fused parts or gaps limits assumed): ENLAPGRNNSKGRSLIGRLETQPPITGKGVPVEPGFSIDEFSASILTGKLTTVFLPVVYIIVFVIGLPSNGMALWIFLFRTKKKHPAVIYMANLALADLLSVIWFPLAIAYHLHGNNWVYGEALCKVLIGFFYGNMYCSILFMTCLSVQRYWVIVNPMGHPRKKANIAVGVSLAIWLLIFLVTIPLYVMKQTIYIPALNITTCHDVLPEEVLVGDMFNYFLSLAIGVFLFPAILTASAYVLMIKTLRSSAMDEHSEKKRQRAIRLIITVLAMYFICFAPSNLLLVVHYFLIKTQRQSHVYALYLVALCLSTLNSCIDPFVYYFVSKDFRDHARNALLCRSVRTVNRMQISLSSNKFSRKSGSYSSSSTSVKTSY
Chain of C-terminal biotinylated human PAR-2 14-mer peptide SEQ ID NO:886 (Asp-43 to Ala) (human) (peptide, as listed by the source): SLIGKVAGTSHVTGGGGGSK
Chain of Human Kallikrein 5 (Q9Y337 67-293 limits assumed): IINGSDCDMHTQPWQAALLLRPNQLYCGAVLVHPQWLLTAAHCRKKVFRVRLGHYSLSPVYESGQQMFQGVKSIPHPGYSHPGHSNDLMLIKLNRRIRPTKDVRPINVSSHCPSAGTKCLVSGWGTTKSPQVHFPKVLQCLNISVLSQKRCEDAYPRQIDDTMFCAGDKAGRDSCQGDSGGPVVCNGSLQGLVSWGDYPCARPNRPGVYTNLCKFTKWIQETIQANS

EC50 of activator, NF-kB-luciferase [1]: 27.2 nM
EC50 of activator, NF-kB-luciferase [2]: 46.3 nM
EC50 of activator, NF-kB-luciferase (monkey PAR-2 (monkey)): 58.2 nM
Substance: Bovine Factor Xa (from UniProt P00743 41-492) (enzyme)

EC50 of activator, NF-kB-luciferase (monkey PAR-2 (monkey)): 2.4 nM
Substance: Human Pancreatic Trypsin (enzyme)

% Rel Binding [3]: 100%
% Rel T1/2 [3]: 100%
% Rel Binding [4]: 120%
% Rel T1/2 [4]: 159%
% Rel Binding [5]: 88%
% Rel T1/2 [5]: 27%
% Rel Binding [6]: 87%
% Rel T1/2 [6]: 27%
Substance: Comparator 2, antibody having the heavy and light chain variable regions of the antibody referred to as Sam-11 (Molino et al. 1998)

EC50 of activator, NF-kB-luciferase [1]: 61.1 nM
Substance: Tryptase (Table 22) (enzyme)

EC50 of activator, NF-kB-luciferase [1]: 28 nM
EC50 of activator, NF-kB-luciferase (monkey PAR-2 (monkey)): 16.8 nM
Substance: Human Kallikrein 5 (from UniProt Q9Y337 67-293) (enzyme)

EC50 of activator, NF-kB-luciferase [1]: 46.3 nM
EC50 of activator, NF-kB-luciferase [2]: 78.7 nM
Substance: Human Factor Xa (from UniProt P00742 41-488) (enzyme)

IC50, calcium mobilization FLIPR, 100 nM Trypsin [1]: > 1000 nM
Substance: Non-Specific Control (non-PAR-2 specific control antibody)

Kd [7]: 149 nM
T1/2 [7]: 0.1 min
Kd [8]: 0.99 nM
T1/2 [8]: 19 min
Kd [9]: 0.279 nM
T1/2 [9]: 32 min
Kd [10]: 0.935 nM
T1/2 [10]: 14 min
A450 ratio (293/D9/hPAR-2rec to 293/D9 cells) [11]: 1.49
Substance: Sam11, commercially available mouse monoclonal antibody that binds human PAR-2 (Santa Cruz Biotechnology)
